# Data reported in publication PMC3542976.
# Like-named read-outs stand apart in the source and are kept apart here.
# B1: r(TSA3)/drd(BS) A3-bulged chimeric duplex (mixed)
# RNA: GGGAGAGGCAAGUCGUUCGGUCGCGUUCGCAAAUGUCGUCGCGUCUUGUAUGCCACUGUACCC
# DNA: GGGTACAGTGGCATACAAGACGCGACGACAGCGAACGCGACCGAACGACTTGCCTCTCCC
# modifications: strand 2 is DNA22-RNA16-DNA22 (RNA at 23-38)
# B2: r(TSA6)/drd(BS) A6-bulged chimeric duplex (mixed)
# RNA: GGGAGAGGCAAGUCGUUCGGUCGCGUUCGCAAAAAAUGUCGUCGCGUCUUGUAUGCCACUGUACCC
# DNA: B1 DNA
# modifications: strand 2 is DNA22-RNA16-DNA22 (RNA at 23-38)
# How the values were obtained:
# p20 (dsRBD of PKR) [1] = molecular target: T1, p20 (dsRBD of PKR) (UniProt P19525 1-184); assay: SAXS
# PKR K296R full length = PKR K296R full length (UniProt P19525 1-551, K296R); assay: EMSA
# p20 (dsRBD of PKR) [2] = molecular target: T1, p20 (dsRBD of PKR); assay: SAXS; remark: listed apart in the source
# Sequence of PKR K296R full length (P19525 whole entry K296R): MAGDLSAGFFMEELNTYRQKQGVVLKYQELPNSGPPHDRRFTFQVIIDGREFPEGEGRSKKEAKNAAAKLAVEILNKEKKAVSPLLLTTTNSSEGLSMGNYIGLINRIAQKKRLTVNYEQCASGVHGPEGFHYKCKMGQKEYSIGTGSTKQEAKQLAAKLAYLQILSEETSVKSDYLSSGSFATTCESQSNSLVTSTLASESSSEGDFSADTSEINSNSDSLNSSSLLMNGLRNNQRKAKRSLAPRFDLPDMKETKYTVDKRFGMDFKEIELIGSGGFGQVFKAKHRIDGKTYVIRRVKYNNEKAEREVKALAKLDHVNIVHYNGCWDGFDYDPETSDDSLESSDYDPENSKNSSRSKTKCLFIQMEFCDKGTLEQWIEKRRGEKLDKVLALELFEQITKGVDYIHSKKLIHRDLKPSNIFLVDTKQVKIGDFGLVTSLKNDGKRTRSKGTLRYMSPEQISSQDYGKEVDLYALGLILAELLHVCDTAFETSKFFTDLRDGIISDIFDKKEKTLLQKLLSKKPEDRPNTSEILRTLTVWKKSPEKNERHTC
# T1 sequence (P19525 1-184): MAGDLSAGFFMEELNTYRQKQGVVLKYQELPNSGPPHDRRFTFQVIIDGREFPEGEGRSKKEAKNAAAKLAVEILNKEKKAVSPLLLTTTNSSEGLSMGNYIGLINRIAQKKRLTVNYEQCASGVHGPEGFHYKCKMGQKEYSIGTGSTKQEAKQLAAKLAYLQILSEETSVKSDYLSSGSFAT
Binder,binding result (p20 (dsRBD of PKR) [1]),binding result (PKR K296R full length),binding result (p20 (dsRBD of PKR) [2])
B1,binds,binds,
B2,,binds,binds
